In publication PMC9751120 (2022):
Like-named read-outs stand apart in the source and are kept apart here.

Assays:
Experiment in all cases: FP
[1] = molecular target: T1, purified full-length TAp63α (human)
T1 chain: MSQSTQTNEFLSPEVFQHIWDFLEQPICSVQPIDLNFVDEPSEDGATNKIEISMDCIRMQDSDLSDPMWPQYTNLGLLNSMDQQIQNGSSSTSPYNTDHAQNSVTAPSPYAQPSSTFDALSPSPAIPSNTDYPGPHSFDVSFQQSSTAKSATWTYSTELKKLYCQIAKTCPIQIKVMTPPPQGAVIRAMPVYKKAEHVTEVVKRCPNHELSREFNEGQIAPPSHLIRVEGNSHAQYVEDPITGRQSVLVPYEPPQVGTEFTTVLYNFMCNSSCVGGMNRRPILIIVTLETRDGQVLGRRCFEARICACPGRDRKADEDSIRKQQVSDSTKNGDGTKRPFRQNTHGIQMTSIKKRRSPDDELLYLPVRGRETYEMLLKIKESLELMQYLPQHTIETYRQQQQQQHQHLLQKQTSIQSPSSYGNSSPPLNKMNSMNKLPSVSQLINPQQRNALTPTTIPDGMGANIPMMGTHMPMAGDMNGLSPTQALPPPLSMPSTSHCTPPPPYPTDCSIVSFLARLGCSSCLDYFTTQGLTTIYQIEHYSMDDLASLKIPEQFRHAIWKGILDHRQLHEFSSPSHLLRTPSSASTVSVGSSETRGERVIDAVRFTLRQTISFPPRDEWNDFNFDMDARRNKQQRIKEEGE

[2] = molecular target: T2, purified full-length ΔNp63α (human, UniProt Q9H3D4-2 1-586)
T2 chain: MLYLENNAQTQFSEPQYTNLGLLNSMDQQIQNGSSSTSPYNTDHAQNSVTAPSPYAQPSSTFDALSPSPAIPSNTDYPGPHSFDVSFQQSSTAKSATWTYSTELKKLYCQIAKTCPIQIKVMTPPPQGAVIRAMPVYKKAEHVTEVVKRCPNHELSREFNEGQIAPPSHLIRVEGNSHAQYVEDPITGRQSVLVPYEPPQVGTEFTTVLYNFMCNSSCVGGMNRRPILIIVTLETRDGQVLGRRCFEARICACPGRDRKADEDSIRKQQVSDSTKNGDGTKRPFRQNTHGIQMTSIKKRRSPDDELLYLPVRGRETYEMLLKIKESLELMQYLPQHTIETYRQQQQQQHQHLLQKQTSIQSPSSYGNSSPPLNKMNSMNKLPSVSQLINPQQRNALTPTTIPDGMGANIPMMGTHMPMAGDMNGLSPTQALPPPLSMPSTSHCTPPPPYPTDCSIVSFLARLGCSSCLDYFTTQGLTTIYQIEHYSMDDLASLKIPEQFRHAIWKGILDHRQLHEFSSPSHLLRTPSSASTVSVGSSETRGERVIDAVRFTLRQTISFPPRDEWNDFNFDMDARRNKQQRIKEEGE

[3] = molecular target: T1, purified full-length TAp63α
[4] = molecular target: T2, purified full-length ΔNp63α
[5] = molecular target: T1, purified full-length TAp63α
[6] = molecular target: T2, purified full-length ΔNp63α

B1: DARPin C14, Alexa 488 labeled (designed binder)
chain: GSDLGKKLLEAAQIGQLDEVRILMANGADVNASDTDGLTPLHLAAASGHLEIVEVLLKTGADVNATDKWGDTPLHLAASQGHLEIVEVLLKAGADVNATDFTGNTPLHLAAYIGHLEIVEVLLKHGADVNAQDKFGKTPFDLAIDNGNEDIAEVLQKAAGGC
modifications: Alexa Fluor 488 C5 maleimide on the introduced C-terminal cysteine
Kd [1]: 734 nM
Kd [2]: 202 nM

B2: DARPin A5, Alexa 488 labeled (designed binder)
chain: GSDLGKKLLEAARAGQDDEVRILMANGADVNAQDQYGWTPLHLAAARGHLEIVEVLLKTGADVNAVDKHGNTPLPLAASVGHLEIVEVLLKAGADVNAQDQFGRTPLHLAAMWGHLEIVEVLLKHGADVNAQDKFGKTAFDISIDNGNEDIVEVLQKAAGGC
modifications: Alexa Fluor 488 C5 maleimide on the introduced C-terminal cysteine
Kd [3]: 296 nM
Kd [4]: 67.9 nM

B3: DARPin 8F1, Alexa 488 labeled (designed binder)
chain: GSDLGKKLLEAARAGQDDEVRILMANGADVNAADWLGYTPLHLAAWYGHLEIVEVLLKTGADVNARDAYGITPLHLAAYYGHLEIVEVLLKHGADVNAQDKFGKTPFDLAIDNGNEDIAEVLQKAAGGC
modifications: Alexa Fluor 488 C5 maleimide on the introduced C-terminal cysteine
Kd [5]: 6160 nM
Kd [6]: 95.6 nM
